For ten compounds, Kd, stoichiometry N and binding results are on record in paper PMC12016517, “Transcriptional regulation of two redundant 3-bromo-4-hydroxybenzoate catabolic operons via two different regulatory modes in Pigmentiphaga kullae strain H8” (Applied and Environmental Microbiology, 2025).

Several values for one entry are separate records, joined by “and”; a condition that tells them apart may be missing. Identical values can stand only once.

In general, Kd refers to the concentration at which binding is half-saturated. High values mean lower affinity, low ones higher affinity. As usually defined, the stoichiometry N is the number of molecules, sites or subunits per partner or assembly.

The test system of data set [1] is T1, BhbR1 (LysR-type regulator) (Pigmentiphaga kullae H8), ORF:3710a82b.
T1 sequence: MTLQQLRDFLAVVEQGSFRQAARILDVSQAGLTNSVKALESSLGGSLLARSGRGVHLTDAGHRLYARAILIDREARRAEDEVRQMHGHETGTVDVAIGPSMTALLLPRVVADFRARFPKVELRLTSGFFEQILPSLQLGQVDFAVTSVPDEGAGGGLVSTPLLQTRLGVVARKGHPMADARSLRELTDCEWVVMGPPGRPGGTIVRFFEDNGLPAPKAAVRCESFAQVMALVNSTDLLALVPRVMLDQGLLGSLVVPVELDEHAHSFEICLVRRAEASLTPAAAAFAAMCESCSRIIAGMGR
Nature of the data set: SPR. The following applies: EMSA BhbR1: 100 mM Tris-HCl pH 8.0, 50 mM KCl, 5% glycerol, 1 mM DTT, BhbR2: 50 mM Tris-HCl pH 8.0, 30 mM KCl, 1 mM EDTA, 5 mM DTT, 25 C, 30 min. …. In general terms: A gel shift assay detects complexes by their altered migration in electrophoresis.

In data set [2] the test system is BhbR1 (LysR-type regulator) (Pigmentiphaga kullae H8). The data set can be described thus: SPR. The settings on record: EMSA BhbR1: 100 mM Tris-HCl pH 8.0, 50 mM KCl, 5% glycerol, 1 mM DTT, BhbR2: 50 mM Tris-HCl pH 8.0, 30 mM KCl, 1 mM EDTA, 5 mM DTT, 25 C, 30 min. ….
Data set [3] concerns the target LysR-type transcriptional regulator BhbR1 (Pigmentiphaga kullae strain H8). The data set can be described thus: SEC; gel filtration on Superose 6 10/300 GL, 25°C, PBS pH 7.8, 0.4 mL/min, calibrated with protein molecular weight markers; oligomeric state of the purified regulator. For orientation: SEC sorts molecules by how far they enter the pores of the column.
Data set [4] has as its system T1, BhbR1 (LysR-type regulator) (Pigmentiphaga kullae H8), ORF:3710a82b. The data set can be described thus: EMSA. The settings on record: EMSA BhbR1: 100 mM Tris-HCl pH 8.0, 50 mM KCl, 5% glycerol, 1 mM DTT, BhbR2: 50 mM Tris-HCl pH 8.0, 30 mM KCl, 1 mM EDTA, 5 mM DTT, 25 C, 30 min. ….
Data set [5] concerns T2, BhbR2 (MarR-family regulator) (Pigmentiphaga kullae H8), ORF:e62c0bd9.
T2 sequence: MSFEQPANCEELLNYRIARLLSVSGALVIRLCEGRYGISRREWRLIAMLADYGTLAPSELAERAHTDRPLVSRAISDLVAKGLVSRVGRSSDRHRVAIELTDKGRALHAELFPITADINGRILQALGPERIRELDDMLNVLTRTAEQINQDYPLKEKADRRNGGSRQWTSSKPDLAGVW
The data set can be described thus: EMSA. The settings on record: EMSA BhbR1: 100 mM Tris-HCl pH 8.0, 50 mM KCl, 5% glycerol, 1 mM DTT, BhbR2: 50 mM Tris-HCl pH 8.0, 30 mM KCl, 1 mM EDTA, 5 mM DTT, 25 C, 30 min. ….

Data set [6] deals with T3, BhbR2 (MarR-family transcription factor).
T3 construct: C-terminal His-tagged BhbR2 (179 amino acids), expressed in E. coli BL21(DE3)
The data set can be described thus: SPR (Biacore T200, protein immobilized on CM7 chip, steady-state affinity). It is filed as binding, Pigmentiphaga kullae. A general note: SPR reads the build-up and loss of mass on a sensor chip optically.

Data set [7] has as its target T4, BhbR1 (LysR-type transcriptional regulator).
T4 construct: C-terminal His-tagged BhbR1 (302 amino acids), expressed in E. coli BL21(DE3)
The description is as above. The data set is classed as binding, Pigmentiphaga kullae.

Data set [8] relates to BhbR2 (MarR-family regulator) (Pigmentiphaga kullae H8). Nature of the data set: SPR. The following applies: EMSA BhbR1: 100 mM Tris-HCl pH 8.0, 50 mM KCl, 5% glycerol, 1 mM DTT, BhbR2: 50 mM Tris-HCl pH 8.0, 30 mM KCl, 1 mM EDTA, 5 mM DTT, 25 C, 30 min. ….
The test system of data set [9] is T2, BhbR2 (MarR-family regulator) (Pigmentiphaga kullae H8), ORF:e62c0bd9. The data set can be described thus: SPR. The settings on record: EMSA BhbR1: 100 mM Tris-HCl pH 8.0, 50 mM KCl, 5% glycerol, 1 mM DTT, BhbR2: 50 mM Tris-HCl pH 8.0, 30 mM KCl, 1 mM EDTA, 5 mM DTT, 25 C, 30 min. ….
For data set [10], the target named is MarR-family transcription factor BhbR2 (Pigmentiphaga kullae strain H8). The data set can be described thus: SEC; gel filtration on Superose 6 10/300 GL, 25°C, PBS pH 7.8, 0.4 mL/min, calibrated with protein molecular weight markers; oligomeric state of the purified regulator.

As to “ACCAGCAAGGAACGTGCCCCGTGATCCGCGGTTGCTGATAGCAAACCGTTATCGAGATAAGGAAAAACTGGCTTTTCGCTGTGCGCGTGGATCGTGATACTGCCGCCGGGCCTGGATGAACGGGCCCGGCAACGGAACTACGAC (double strand) [Fphbh1 (Fpbhb1)]”, in [1], the Kd is 0.0007 µM and 0.0012 µM. As to Fphbh1 (Fpbhb1), the figures for the Kd in data set [2] (5 uM 3-Br-4-HB) and in [2] (no inducer) were 0.0012 µM and 0.0007 µM, respectively. With “LysR-type transcriptional regulator BhbR1 (natural protein)”, the stoichiometry N in data set [3] worked out at 4. Take “TAATCCGACATCGGCCGCTCCAATAGTGAGAGGTCTTGCGATCCCCCCCTTTCCCCCGTAGGGCGTATGCGGTATTAGCTACGCTTTCGCGTAGTTATCCCCCGCTACTGGGCACGTTCCGATGCATTACTCACCCGTTCGCCACTCGCCGC (double strand) [Pb16S]”: the binding result in data set [4] and in [5] was “no binding” in each case. With `O=C(O)c1ccc(O)c(Br)c1` [3-Br-4-HB, 3-bromo-4-hydroxybenzoate], the equilibrium dissociation constant (Kd) in data set [6] amounted to 2.1 µM; in data set [7], 2.2 µM. In the case of FpcaA2, the equilibrium dissociation constant (Kd) in [8] (5 uM 3-Br-4-HB) amounted to 0.259 µM; in data set [8] (no inducer) it was 0.397 µM.

Consider “GGGCAATGCTCCTTGGGTAGAGGGAAAACGACCAGGGCCGCGCCGGCGTATGGCGTTGCGGCTGCTGGGCTTTTTATGGAGAATGACTCTAGCTTTCATGTCCTTGATTGTTCTAATCAACCGCCGTCGGCACAGGAGCAGCCATGTCCTTCG (double strand) [FpcaA2]”, for which the dissociation constant Kd in data set [9] is 0.397 µM and 0.259 µM. As to “GAACTCGAGTGATGCCGTAGCGGCCTTCGCACAACCGGATCACCAGCGCCCCGCTGACCGACAGCAGCCTGGCTATCCGGTAGTTCAGGAGTTCCTCGCAATTTGCGGGCTGCTCGAAGGACATGGCTGCTCCTGTGCCGACGGCGGTTGATTAGAACAATCAAGGACATGAAAGCTAGAGTCATTCTCCATAAAAAGCCCAGCAGCCGCAACGCCATACGCCGGCGCGGCCCTGGTCGTTTTCCCTCTACCCAAGGAGCATTGCCCACTAGTTTC (double strand) [PbR2 (PpcaA2 promoter probe, EMSA)]”, in [5], the binding result is “binds”. “GAACTCGAGGTGCTGTCGATTTGTGCCATGTTGATCTCCTTCATGGACGCCGGCGGCTTCCACGCCTGCGTCCGGGGACGAGAAACTGCGGAAGCGTCGGGATACCAGCAAGGAACGTGCCCCGTGATCCGCGGTTGCTGATAGCAAACCGTTATCGAGATAAGGAAAAACTGGCTTTTCGCTGTGCGCGTGGATCGTGATACTGCCGCCGGGCCTGGATGAACGGGCCCGGCAACGGAACTACGACCCACGACTAGTTTC (double strand) [PbR1 (Pphbh1 promoter probe, EMSA)]”: the binding entry in data set [4] is given as “binds”. Consider “MarR-family transcription factor BhbR2 (natural protein)”, for which, in [10], the stoichiometry N was determined as 2.
